For this assay, the target named is human IL-23 (human) (UniProt P29460). Put plainly: cell-based or functional assay.
Sequence of human IL-23 (human) (chain, as listed by the source limits assumed, chain 1 of 2): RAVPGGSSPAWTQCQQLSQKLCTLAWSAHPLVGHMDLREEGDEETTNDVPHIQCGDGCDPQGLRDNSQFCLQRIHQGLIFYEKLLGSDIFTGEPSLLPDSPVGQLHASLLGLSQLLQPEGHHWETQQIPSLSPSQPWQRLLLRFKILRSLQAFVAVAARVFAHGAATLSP
Sequence of human IL-23 (human) (P29460 23-328 limits assumed, chain 2 of 2): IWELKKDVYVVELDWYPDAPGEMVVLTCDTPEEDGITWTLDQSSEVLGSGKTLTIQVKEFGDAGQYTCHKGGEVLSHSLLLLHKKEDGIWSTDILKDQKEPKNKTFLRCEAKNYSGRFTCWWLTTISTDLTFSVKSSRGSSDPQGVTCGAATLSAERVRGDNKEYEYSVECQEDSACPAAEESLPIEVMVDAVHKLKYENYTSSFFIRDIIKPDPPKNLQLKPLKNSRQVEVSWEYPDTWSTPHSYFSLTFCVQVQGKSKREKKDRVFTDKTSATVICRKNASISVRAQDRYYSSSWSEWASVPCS

Turning to isotype control antibody, the Ct value, murine IL-17A mRNA in skin injected with human IL-23 (in vivo neutralization) stood at 35.4 Ct and the Ct value, murine IL-17F mRNA in skin injected with human IL-23 (in vivo neutralization) was found to be 31.6 Ct.

The record behind these values is patent US20170275356A1.
